B1: Allomuricauda taeanensis (Ata) sigma factor E RpoE with N-terminal 3xFLAG tag (other)
chain: MLYSDFELLKIGDTSALDHIHAKYFRSILWIGRQWLNDDFLIESLVQDTFLKLWVNRDKLESPEHIFYFLRFVMKRECISYYRKPKYKFHKKVNSLEDYDNYQDYMVGYDPVNDSENLDEQESTQKSFDHIKSILPLLNADKRHLIELCLKYGFQYKAISKVMGKGIHETSREIKEAIEDIKTIVHKGNELGSNDTMTNEIKFSGELSEEQAKVLKMRCDLKYSFSEIAKELELSEKEVHQEFMKAYKLMKANHQLQLQSA
notes: Expressed in E. coli together with dCas12f, HTH and gRNA; also called FLAG-RpoE; Ata RpoE; not shown: N-terminal 3xFLAG tag
B2: Allomuricauda taeanensis (Ata) rpoE-associated nuclease-dead Cas12f (other)
chain: MGKSTLKHTRKIQILIDLPTKDEKKEVMDMMYQWRDRCFRAANIIVTHLYVQEMIKDFFYLSEGIKYKLADEKKDEKGILQRSRMNTTYRVVSDRFKGEMPTNILSTLNHGLISSFNKNRVQYWKGERSLPNFKKDMAFPFGLQGISRLVYDEEKKAFCFRLYRVPFKTYLGKDFTDKRMLLERLVKGDVKLCASNIQLNGGKIFWLAVFEIEKEKHSLKPEVIAEASLSLEYPIVVKTGKNRLTIGTKEEFLYRRLAIQAARRRTQVGATYSRSGKGKKRKLKAVDKYHKTESNYVAHRIHVYSRKLIDFCIKHQAGTLILMNQEDKVGIAKEEEFVLRNWSYYELMTKIKYKAEKAGIELIIG
notes: Untagged dCas12f, co-expressed in E. coli with its gRNA from the Ata plasmid in which the FLAG tag sits on RpoE or on HTH; also called Ata dCas12f; AtadCas12f

Key:
[1] = target: B2; assay: ChIP-seq (anti-FLAG) of N-terminally 3xFLAG-tagged Ata RpoE in E. coli co-expressing Ata dCas12f and gRNAs retargeted to four genomic sites
Experimental: After conjugating, the antibody-magnetic beads were added to the sonication supernatant and incubated at 4° C. for 12-16 h. Then, the magnetic beads were washed and immunoprecipitated protein bound to crosslinked DNA was eluted. Reverse-crosslinking was performed at 65° C. overnight. Samples were treated with RNase A (Thermo Fisher Scientific) and proteinase K (Thermo Fisher Scientific) and purified using QIAquick spin columns (QIAGEN). ChIP-sequencing libraries were generated using the NEBNext Ultra II DNA Library Prep Kit for Illumina (NEB). Size selection (˜450 bp fragment size) was performed using AMPure XP Beads (Beckman Coulter) and samples were sequenced using the Illumina NextSeq 500 platform in paired-end mode with 75 cycles per end. Sequencing reads were mapped to the E. coli K-12 genome (GenBank NC_000913.3) using bowtie2 and normalized using deepTools bamCoverage and visualized in IGV using counts per million (CPM). […]
Re-programmability of gRNAs for RNA-guided DNA-targeting of dCas12f and RpoE To test whether the gRNA and TAM were correctly determined by RIP-seq and ChIP-seq, new guide sequences were cloned for one representative system (here, Ata), targeting 4 different DNA sites tiled across the E. coli K-12 genome. […]

[2] = target: B1; assay: summary of the ChIP-seq and ChIP-qPCR data on the Ata system in E. coli

| Binder | binding result [1] | binding result [2] |
| --- | --- | --- |
| B1 | binds | – |
| B2 | – | binds |

From patent US20260152767A1 (TRUSTEES OF COLUMBIA UNIVERSITY IN THE CITY OF NEW YORK, published 2026)
